US20150238641A1 (BRITISH COLUMBIA CANCER AGENCY BRANCH, published 2015)
Where “and” joins values, the source holds several entries; their conditions need not be identical. Identical values can stand only once. Where no end group is shown, it is not given here. [ ]: non-standard residue; d: D form. The star is where a group is joined. DOTA = O=C(O)CN1CCN(CC(=O)O)CCN(CC(=O)*)CCN(CC(=O)O)CC1; Hyp = O=C(O)[C@@H]1C[C@@H](O)CN1; Cha = N[C@@H](CC1CCCCC1)C(=O)O; Ahx = NCCCCCC(=O)O

B1: Peptide 12: Ga-DOTA-Ahx-Lys-Arg-Pro-Hyp-Gly-Cha-Ser-Pro-(D-Phe) (peptide)
peptide: KRPXGXSPF
modifications: N-terminal Ga-DOTA-Ahx-; Hyp at position 4; Cha at position 6; D-Phe at position 9
notes: 68Ga-labelled in vivo
B2: Peptide 2: DTPA-Ahx-Lys-Arg-Pro-Hyp-Gly-Cha-Ser-Pro-(D-Phe) (peptide)
peptide: KRPXGXSPF
modifications: N-terminal DTPA-Ahx- (printed 'DPA-Ahx' in Table 4); Hyp at position 4; Cha at position 6; D-Phe at position 9
B3: Peptide 1: D-Pra-Ahx-Lys-Arg-Pro-Hyp-Gly-Cha-Ser-Pro-(D-Phe) (peptide)
peptide: KRPXGXSPF
modifications: N-terminal D-Pra-Ahx- (D-propargylglycine, 6-aminohexanoic acid); Hyp (hydroxyproline) at position 4; Cha (beta-cyclohexylalanine) at position 6; D-Phe at position 9
notes: Agonist-derived probe
B4: H-Lys-Arg-Pro-Pro-Gly-Phe-Ser-Pro-Leu-OH (BK-ANT, Bachem H-2582) (peptide)
peptide: H-KRPPGFSPL-OH
notes: Unlabelled control B1R antagonist bought from Bachem; also called Lys[Leu^8]-des-Arg^9-BK; [Leu^9,des-Arg^10]kallidin
B5: Peptide 3: Ga-DOTA-PEG2-Lys-Arg-Pro-Hyp-Gly-Cha-Ser-Pro-Leu (peptide)
peptide: KRPXGXSPL
modifications: N-terminal Ga-DOTA-PEG2- (PEG2 = 3-[2-(2-aminoethoxyl)ethoxy]propanoic acid); Hyp at position 4; Cha at position 6
notes: 68Ga-labelled in the in vivo imaging; also called Ga-68 Peptide 3
B6: [3,4-prolyl-3,4-3H(N)] [Leu^9, Des-Arg^10]Kallidin (peptide)
peptide: KRPPGFSPL
modifications: also: 3,4-prolyl-3,4-3H(N) tritium label on proline
notes: Radioligand from American Radiolabeled Chemicals (ART1609) or Perkin Elmer (NET1096250UC); also called BK-ANT-ARC; BK-ANT-PE

How the values were obtained:
[1] = biological target: T1, human bradykinin B1 receptor (human, UniProt P46663 1-353); test: competitive radioligand binding; hot ligand BK-ANT-ARC 4.6 nM; CHO-K1 hB1R membranes
T1 construct: whole, on cells; Assays were run on cell membrane preparations (50 ug/well), not on intact cells; HEK293T::GFP::hB1R membranes appear only in the saturation assay; also called hB1R; BDKRB1
T1 sequence (looked up): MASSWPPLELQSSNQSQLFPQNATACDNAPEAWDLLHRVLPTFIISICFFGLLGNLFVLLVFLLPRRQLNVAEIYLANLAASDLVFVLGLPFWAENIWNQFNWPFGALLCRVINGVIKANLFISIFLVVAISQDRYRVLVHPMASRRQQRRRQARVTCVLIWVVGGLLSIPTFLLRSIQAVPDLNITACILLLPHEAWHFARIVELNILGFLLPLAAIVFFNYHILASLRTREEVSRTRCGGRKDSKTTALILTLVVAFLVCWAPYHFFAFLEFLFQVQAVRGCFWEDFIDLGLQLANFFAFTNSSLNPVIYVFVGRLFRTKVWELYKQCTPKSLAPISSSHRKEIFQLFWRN
Method: (§1) Competitive Binding Assays: Assays were performed using 96-well MultiScreenₘₛ with glass fiber filter and PVDF support obtained from Millipore Corp, Billerica, Mass. (cat. no. MSFB N6B, lot no. R8AN42424). Wells of the MultiScreen plate were pre-soaked with 0.5% of cold Poly(ethyleneimine) (PEI) (cat. no. P3143, Sigma-Aldrich, St. Louis, Mo.) for 30 minutes. Afterward, wells were washed once with 50 mM of Tris-HCl pH 7.4. Total volume per wells was 200 μL. […] The MultiScreen plate was then incubated at 27° C. for 15 minutes with agitation at 300 rpm. The assay was stopped by suctioning the reaction solution through the bottom PVDF membrane filter and discarded. The membranes were washed 7x with 150 μL/well of cold 50 mM Tris-HCl pH 7.4. Radioactivity was counted using 1450 MicroBeta TriLux—Microplate Scintillation and Luminescence Counter (Perkin Elmer Inc., Shelton, Conn.).

[2] = biological target: T1, human bradykinin B1 receptor; test: average Ki of the competitive radioligand binding assays on hB1R membranes
Method: as §1

[3] = biological target: T1, human bradykinin B1 receptor; test: competitive radioligand binding; hot ligand BK-AG-ARC 12.5 nM; CHO-K1 hB1R membranes
Method: as §1

[4] = biological target: T1, human bradykinin B1 receptor; test: average Ki of the competitive radioligand binding assays on hB1R membranes (single assay)
Method: as §1

[5] = biological target: T1, human bradykinin B1 receptor; test: competitive radioligand binding; hot ligand BK-ANT-ARC 12.5 nM; CHO-K1 hB1R membranes
Method: as §1

[6] = biological target: T1, human bradykinin B1 receptor; test: saturation radioligand binding, membranes of CHO-K1::hB1R cells
Method: (§2) Assays were done using 96-well MultiScreenHTS with glass fiber filter and PVDF support obtained from Millipore Corp, Billerica, Mass. (cat. no. MSFB N6B, lot no. R8AN42424). Wells of the MultiScreen plate were pre-soaked with 0.5% of cold Poly(ethyleneimine) (PEI) (cat. no. P3143, Sigma-Aldrich, St. Louis, Mo.) for 30 minutes. Afterward, wells were washed once with 50 mM of Tris-HCl pH 7.4. Total volume per wells was 200 μL. […] The assay buffer contained 50 mM of Tris-HCl pH 7.4 and 5 mM of MgCl₂. The Multiscreen plate was incubated at 27° C. for 15 minutes. The assay was stopped by suctioning the reaction solution through the PVDF membrane filter, and washing the filter with ice cold 50 mM Tris-HCl pH 7.4. Scintillation fluid was added to each well, and the radioactivity was measured using a MicroBeta Trilux Microplate Scintillation and Luminescence Counter (Perkin Elmer Inc., Shelton, Conn.). Graphpad Prism 5 was used to calculate the affinity constant (Kd) and the receptor concentration (Bmax).

[7] = biological target: T1, human bradykinin B1 receptor; test: saturation radioligand binding, CHO-K1::hB1R against HEK293T::GFP::hB1R membranes
Method: as §2

[8] = biological target: T1, human bradykinin B1 receptor; test: saturation radioligand binding, membranes of HEK293T::GFP::hB1R cells
Method: as §2

[9] = biological target: T1, human bradykinin B1 receptor; test: competitive radioligand binding; hot ligand BK-ANT-ARC 4.5 nM; CHO-K1 hB1R membranes
Method: as §1

[10] = biological target: T1, human bradykinin B1 receptor; test: assay not described at this place; competitive binding presumed

Row | Binder | Ki [1] | Ki [2] | further results
1 | KRPXGXSPL (N-terminal Ga-DOTA-Ahx-; Hyp at position 4; Cha at position 6) [Peptide 10: Ga-DOTA-Ahx-Lys-Arg-Pro-Hyp-Gly-Cha-Ser-Pro-Leu] | 22.3 nM and 29 nM and 32 nM | 27.8 nM | 
2 | B1 | 19.7 nM and 29.1 nM and 27.5 nM | 25.4 nM | 
3 | B2 |  |  | Ki [3]: 131 nM; Ki [4]: 131 nM
4 | B3 |  | 32.2 nM | Ki [3]: 10.9 nM; Ki [5]: 74.6 nM
5 | B4 | 0.49 nM |  | 
6 | B5 | 13.3 nM and 17.1 nM and 17.6 nM and 16 nM | 16 nM | 
7 | B6 |  |  | Kd [6]: 0.574 nM; fold lower Kd in CHO-K1::hB1R cells than in HEK293T::GFP::hB1R cells [7]: 6 fold; Kd [8]: 3.46 nM
8 | {DOTA}-GGKRP[Hyp]G[Cha]SPL (also: Ga loaded in DOTA, 68Ga-labelled in vivo) [Peptide 8: Ga-DOTA-Gly-Gly-Lys-Arg-Pro-Hyp-Gly-Cha-Ser-Pro-Leu] | 13.5 nM | 11.4 nM | Ki [9]: 8.63 nM and 12.1 nM
9 | {DOTA-Ahx}-KRPPGFSPL (also: Ga complex of DOTA (natGa in assays, 68Ga in vivo), also called P03083) [Peptide 4: Ga-DOTA-Ahx-Lys-Arg-Pro-Pro-Gly-Phe-Ser-Pro-Leu] | 2.47 nM and 3.57 nM and 2.23 nM and 1.93 nM | 2.55 nM | Ki [10]: 12.4 nM
